From IntAct's records for PubMed 23290633

B1: Magnesium transporter NIPA4 (Homo sapiens), Q0D2K0 (parent)
chain: MELRVSNTSCENGSLLHLYCSSQEVLCQIVNDLSPEVPSNATFHSWQERIRQNYGFYIGLGLAFLSSFLIGSSVILKKKGLLRLVATGATRAVDGGFGYLKDAMWWAGFLTMAAGEVANFGAYAFAPATVVTPLGALSVLISAILSSYFLRESLNLLGKLGCVICVAGSTVMVIHAPEEEKVTTIMEMASKMKDTGFIVFAVLLLVSCLILIFVIAPRYGQRNILIYIIICSVIGAFSVAAVKGLGITIKNFFQGLPVVRHPLPYILSLILALSLSTQVNFLNRALDIFNTSLVFPIYYVFFTTVVVTSSIILFKEWYSMSAVDIAGTLSGFVTIILGVFMLHAFKDLDISCASLPHMHKNPPPSPAPEPTVIRLEDKNVLVDNIELASTSSPEEKPKVFIIHS

Variants of: B1
Settings: with SLC27A4, Q6P1M0
Chain of SLC27A4, Q6P1M0 (Q6P1M0 whole entry, looked up): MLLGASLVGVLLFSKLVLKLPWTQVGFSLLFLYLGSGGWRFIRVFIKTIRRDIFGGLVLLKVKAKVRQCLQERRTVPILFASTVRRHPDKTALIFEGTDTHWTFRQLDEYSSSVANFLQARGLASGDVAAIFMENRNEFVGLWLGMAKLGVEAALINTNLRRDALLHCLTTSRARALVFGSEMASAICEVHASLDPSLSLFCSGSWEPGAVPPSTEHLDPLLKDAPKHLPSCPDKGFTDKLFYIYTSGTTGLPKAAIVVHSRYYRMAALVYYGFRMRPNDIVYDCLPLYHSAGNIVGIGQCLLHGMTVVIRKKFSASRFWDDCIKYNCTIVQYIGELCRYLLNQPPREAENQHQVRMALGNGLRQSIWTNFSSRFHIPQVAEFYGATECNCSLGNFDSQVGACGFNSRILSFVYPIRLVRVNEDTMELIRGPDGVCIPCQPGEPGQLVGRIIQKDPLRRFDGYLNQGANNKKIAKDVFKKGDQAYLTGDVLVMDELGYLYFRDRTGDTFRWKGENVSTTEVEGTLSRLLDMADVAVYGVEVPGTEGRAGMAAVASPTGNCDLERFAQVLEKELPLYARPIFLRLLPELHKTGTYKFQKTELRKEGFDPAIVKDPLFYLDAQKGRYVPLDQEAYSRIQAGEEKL

effect of a mutation on the interaction	Variant
decreasing interaction	MELRVSNTSCENGSLLHLYCSSQEVLCQIVNDLSPEVPSNATFHSWQERIRQNYGFYIGLGLAFLSSFLIGSSVILKKKGLLRLVATGATRAVDGGFGYLKDAMWWAGFLTMADGEVANFGAYAFAPATVVTPLGALSVLISAILSSYFLRESLNLLGKLGCVICVAGSTVMVIHAPEEEKVTTIMEMASKMKDTGFIVFAVLLLVSCLILIFVIAPRYGQRNILIYIIICSVIGAFSVAAVKGLGITIKNFFQGLPVVRHPLPYILSLILALSLSTQVNFLNRALDIFNTSLVFPIYYVFFTTVVVTSSIILFKEWYSMSAVDIAGTLSGFVTIILGVFMLHAFKDLDISCASLPHMHKNPPPSPAPEPTVIRLEDKNVLVDNIELASTSSPEEKPKVFIIHS [A114D]
